Source: patent publication US20100272723A1 (Xencor, published 2010)

T1: human CD19 (human, UniProt P15391 20-556)
T1 construct: also called B-cell surface antigen B4; B-cell antigen CD19
T1 sequence: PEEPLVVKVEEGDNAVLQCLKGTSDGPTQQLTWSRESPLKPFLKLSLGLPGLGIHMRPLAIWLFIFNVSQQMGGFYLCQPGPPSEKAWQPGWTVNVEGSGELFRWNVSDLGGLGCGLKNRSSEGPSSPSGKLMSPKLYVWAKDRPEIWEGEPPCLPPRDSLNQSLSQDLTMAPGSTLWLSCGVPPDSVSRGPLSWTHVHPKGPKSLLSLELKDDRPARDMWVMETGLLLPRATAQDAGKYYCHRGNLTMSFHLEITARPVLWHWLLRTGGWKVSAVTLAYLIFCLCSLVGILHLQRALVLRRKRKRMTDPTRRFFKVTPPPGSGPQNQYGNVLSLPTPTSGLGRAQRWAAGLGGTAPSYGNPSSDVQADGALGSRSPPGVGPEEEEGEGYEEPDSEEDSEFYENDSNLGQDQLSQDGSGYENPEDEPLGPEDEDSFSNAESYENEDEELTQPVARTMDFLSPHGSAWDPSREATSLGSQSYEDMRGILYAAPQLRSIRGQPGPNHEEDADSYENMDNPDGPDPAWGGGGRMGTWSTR


Biological target: T1, human CD19
Experiment: binding affinity relative to the parent H1L1 mAb (Example 5); assay and format not named on the sheet

| Binder | Fold change binding |
| --- | --- |
| H1.147 / L1 (antibody, V domains shown, vs H1L1 (Kabat): VH D101S; also called 4G7 H1.147_L1) VH: EVQLVESGGGLVKPGGSLKLSCAASGYTFTSYVMHWVRQAPGKGLEWIGYINPYNDGTKYNEKFQGRVTISSDKSISTAYMELSSLRSEDTAMYYCARGTYYYGSRVFSYWGQGTLVTVSS VL: DIVMTQSPATLSLSPGERATLSCRSSKSLLNSNGNTYLYWFQQKPGQSPQLLIYRMSNLASGVPDRFSGSGSGTEFTLTISSLEPEDFAVYYCMQHLEYPFTFGAGTKLEIK | 2.65 fold |
| H1.199 / L1.139 (antibody, V domains shown, vs H1L1 (Kabat): VH T57P/K58E/S100cT; VL S27eV/F96N; also called 4G7 H1.199_L1.139) VH: EVQLVESGGGLVKPGGSLKLSCAASGYTFTSYVMHWVRQAPGKGLEWIGYINPYNDGPEYNEKFQGRVTISSDKSISTAYMELSSLRSEDTAMYYCARGTYYYGTRVFDYWGQGTLVTVSS VL: DIVMTQSPATLSLSPGERATLSCRSSKSLLNVNGNTYLYWFQQKPGQSPQLLIYRMSNLASGVPDRFSGSGSGTEFTLTISSLEPEDFAVYYCMQHLEYPNTFGAGTKLEIK | 2.36 fold |
| H1.196 / L1.154 (antibody, V domains shown, vs H1L1 (Kabat): VH T57P/S100cT/R100dS; VL L27cQ/S27eV/A55N/F96N; also called 4G7 H1.196_L1.154) VH: EVQLVESGGGLVKPGGSLKLSCAASGYTFTSYVMHWVRQAPGKGLEWIGYINPYNDGPKYNEKFQGRVTISSDKSISTAYMELSSLRSEDTAMYYCARGTYYYGTSVFDYWGQGTLVTVSS VL: DIVMTQSPATLSLSPGERATLSCRSSKSLQNVNGNTYLYWFQQKPGQSPQLLIYRMSNLNSGVPDRFSGSGSGTEFTLTISSLEPEDFAVYYCMQHLEYPNTFGAGTKLEIK | 4.44 fold |
| H1.192 / L1.154 (antibody, V domains shown, vs H1L1 (Kabat): VH T57P/S100cT; VL L27cQ/S27eV/A55N/F96N; also called 4G7 H1.192_L1.154) VH: EVQLVESGGGLVKPGGSLKLSCAASGYTFTSYVMHWVRQAPGKGLEWIGYINPYNDGPKYNEKFQGRVTISSDKSISTAYMELSSLRSEDTAMYYCARGTYYYGTRVFDYWGQGTLVTVSS VL: DIVMTQSPATLSLSPGERATLSCRSSKSLQNVNGNTYLYWFQQKPGQSPQLLIYRMSNLNSGVPDRFSGSGSGTEFTLTISSLEPEDFAVYYCMQHLEYPNTFGAGTKLEIK | 5.12 fold |
| H1.191 / L1.161 (antibody, V domains shown, vs H1L1 (Kabat): VH K58E/S100cT; VL L27cQ/S27eV/G29S/A55N/F96I; also called 4G7 H1.191_L1.161) VH: EVQLVESGGGLVKPGGSLKLSCAASGYTFTSYVMHWVRQAPGKGLEWIGYINPYNDGTEYNEKFQGRVTISSDKSISTAYMELSSLRSEDTAMYYCARGTYYYGTRVFDYWGQGTLVTVSS VL: DIVMTQSPATLSLSPGERATLSCRSSKSLQNVNSNTYLYWFQQKPGQSPQLLIYRMSNLNSGVPDRFSGSGSGTEFTLTISSLEPEDFAVYYCMQHLEYPITFGAGTKLEIK | 3.97 fold |
| H1.192 / L1.141 (antibody, V domains shown, vs H1L1 (Kabat): VH T57P/S100cT; VL A55N/F96N; also called 4G7 H1.192_L1.141) VH: EVQLVESGGGLVKPGGSLKLSCAASGYTFTSYVMHWVRQAPGKGLEWIGYINPYNDGPKYNEKFQGRVTISSDKSISTAYMELSSLRSEDTAMYYCARGTYYYGTRVFDYWGQGTLVTVSS VL: DIVMTQSPATLSLSPGERATLSCRSSKSLLNSNGNTYLYWFQQKPGQSPQLLIYRMSNLNSGVPDRFSGSGSGTEFTLTISSLEPEDFAVYYCMQHLEYPNTFGAGTKLEIK | 2.57 fold |
| H1.191 / L1.149 (antibody, V domains shown, vs H1L1 (Kabat): VH K58E/S100cT; VL L27cQ/A55N/F96I; also called 4G7 H1.191_L1.149) VH: EVQLVESGGGLVKPGGSLKLSCAASGYTFTSYVMHWVRQAPGKGLEWIGYINPYNDGTEYNEKFQGRVTISSDKSISTAYMELSSLRSEDTAMYYCARGTYYYGTRVFDYWGQGTLVTVSS VL: DIVMTQSPATLSLSPGERATLSCRSSKSLQNSNGNTYLYWFQQKPGQSPQLLIYRMSNLNSGVPDRFSGSGSGTEFTLTISSLEPEDFAVYYCMQHLEYPITFGAGTKLEIK | 6.02 fold |
| H1.192 / L1.148 (antibody, V domains shown, vs H1L1 (Kabat): VH T57P/S100cT; VL L27cQ/A55N/F96N; also called 4G7 H1.192_L1.148) VH: EVQLVESGGGLVKPGGSLKLSCAASGYTFTSYVMHWVRQAPGKGLEWIGYINPYNDGPKYNEKFQGRVTISSDKSISTAYMELSSLRSEDTAMYYCARGTYYYGTRVFDYWGQGTLVTVSS VL: DIVMTQSPATLSLSPGERATLSCRSSKSLQNSNGNTYLYWFQQKPGQSPQLLIYRMSNLNSGVPDRFSGSGSGTEFTLTISSLEPEDFAVYYCMQHLEYPNTFGAGTKLEIK | 4.63 fold |
| H1.199 / L1.141 (antibody, V domains shown, vs H1L1 (Kabat): VH T57P/K58E/S100cT; VL A55N/F96N; also called 4G7 H1.199_L1.141) VH: EVQLVESGGGLVKPGGSLKLSCAASGYTFTSYVMHWVRQAPGKGLEWIGYINPYNDGPEYNEKFQGRVTISSDKSISTAYMELSSLRSEDTAMYYCARGTYYYGTRVFDYWGQGTLVTVSS VL: DIVMTQSPATLSLSPGERATLSCRSSKSLLNSNGNTYLYWFQQKPGQSPQLLIYRMSNLNSGVPDRFSGSGSGTEFTLTISSLEPEDFAVYYCMQHLEYPNTFGAGTKLEIK | 4.02 fold |
| H1.192 / L1.146 (antibody, V domains shown, vs H1L1 (Kabat): VH T57P/S100cT; VL S27eV/A55N/F96N; also called 4G7 H1.192_L1.146) VH: EVQLVESGGGLVKPGGSLKLSCAASGYTFTSYVMHWVRQAPGKGLEWIGYINPYNDGPKYNEKFQGRVTISSDKSISTAYMELSSLRSEDTAMYYCARGTYYYGTRVFDYWGQGTLVTVSS VL: DIVMTQSPATLSLSPGERATLSCRSSKSLLNVNGNTYLYWFQQKPGQSPQLLIYRMSNLNSGVPDRFSGSGSGTEFTLTISSLEPEDFAVYYCMQHLEYPNTFGAGTKLEIK | 3.19 fold |
